Biological target: Cynomolgus/Rhesus CTLA-4 (cynomolgus/rhesus)
Experiment: ELISA with Cynomolgus/Rhesus CTLA-4 titrated (said to be similar to the mouse CTLA-4 ELISA with coated antibodies)

## ipilimumab (human anti-huCTLA-4 marketed as Yervoy) (antibody)
  EC50 (read off the curve): 0.2 nM

— patent US20190153097A1
